Results: the supplement of paper PMC7125110
± gives the standard error. Fewer inactive variants are shown than the library holds.

B1: glmS ribozyme (parent)
chain: AUAAAAGCGCCAGAACUACAGAAAUGUAGUUGACGAGGAGGAGGUUUAUCGAAUUUUCGGCGGAUGCCUCCAAA

Key:
Conditions in all cases: with glucosamine-6-phosphate
glucosamine-6-phosphate [1] = variants of: B1; test: self-cleavage kobs at 640 uM GlcN6P; higher = faster cleavage; RNA array
Method in brief: (§1)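 A hybridised Cy3 probe tracked barcoded ribozyme variants, transcribed in situ by E. coli RNA polymerase on sequenced MiSeq chips, at 37 °C. The variants received 40 μM to 10 mM glucosamine-6-phosphate in HEPES/KCl/Mg(OAc)2 buffer. kobs came from decay fits and kcat and KM from weighted Michaelis–Menten fits.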

glucosamine-6-phosphate [2] = variants of: B1; test: self-cleavage kobs at 2500 uM GlcN6P; higher = faster cleavage; RNA array
Method in brief: as §1

glucosamine-6-phosphate [3] = variants of: B1; test: self-cleavage kobs at 10000 uM GlcN6P; higher = faster cleavage; RNA array
Method in brief: as §1

| Variant | self-cleavage kobs at 640 uM GlcN6P (glucosamine-6-phosphate [1]) [s⁻¹] | self-cleavage kobs at 2500 uM GlcN6P (glucosamine-6-phosphate [2]) [s⁻¹] | self-cleavage kobs at 10000 uM GlcN6P (glucosamine-6-phosphate [3]) [s⁻¹] |
| --- | --- | --- | --- |
| A15G G66U C71U | 0.000559 ± 0.00011 | 0.00142 ± 0.00041 |  |
| A12G G32U G44C G60A C70G | < 1e-05 |  |  |
| G13U C16G G29A A39G | 0.000103 ± 3.7e-05 | 0.000286 ± 7.5e-05 |  |
| C16A G51U U69G | 9.84e-05 ± 4.1e-05 | 0.000199 ± 9.6e-05 |  |
| A15U C50G G66C C71G | 7.22e-05 ± 2.8e-05 | 9.27e-05 ± 3e-05 |  |
| G13A A52C C58G U69G | 4.44e-05 ± 2e-05 |  |  |
| G13U A15U G32U G62C C68A | 7.42e-05 ± 3.5e-05 |  |  |
| A15U A42C C67U C70G | < 1e-05 | < 1e-05 |  |
| A14C G59C C71A | < 1e-05 |  |  |
| C16G G35C U55A U56A | < 1e-05 | < 1e-05 |  |
| A12U G38C A39C | < 1e-05 |  | < 1e-05 |
| G13C A48U A53U C61G | < 1e-05 |  |  |
| A12U G13U G32U A64G | < 1e-05 |  |  |
| A14U C16A G35C G43C A53C C61U | < 1e-05 | < 1e-05 |  |
| A14U G62U U69A | < 1e-05 |  |  |
| G13A A14G G29C C50G | 0.000185 ± 6.9e-05 |  |  |
| C16G U30C C50U | < 1e-05 |  |  |

| Variant | self-cleavage kobs at 640 uM GlcN6P (glucosamine-6-phosphate [1]) [s⁻¹] | self-cleavage kobs at 2500 uM GlcN6P (glucosamine-6-phosphate [2]) [s⁻¹] | self-cleavage kobs at 10000 uM GlcN6P (glucosamine-6-phosphate [3]) [s⁻¹] |
| --- | --- | --- | --- |
| C16A C70U C71A | 0.00012 ± 4.3e-05 |  |  |
| A12G A15C G40U | < 1e-05 |  |  |
| C16G G63U | < 1e-05 | < 1e-05 | < 1e-05 |
| A12C G32A U54G | 2.31e-05 ± 1.1e-05 | 3.03e-05 ± 9.9e-06 | 0.00014 ± 2.3e-05 |
| A15G C16A U30A A64G | 0.000408 ± 0.00011 | 0.00162 ± 0.00041 |  |
| A15U A36G G41U U47A | < 1e-05 |  |  |
| A12G G38C C68G | < 1e-05 | < 1e-05 |  |
| A12U C58U C61G G62C A64G U65A G66U C67G U69C C70U | 7.34e-05 ± 2.4e-05 | 7.58e-05 ± 1.9e-05 |  |
| A12G G41A G59U | < 1e-05 | < 1e-05 |  |
| A14U G29C G51U | < 1e-05 |  |  |
| A12G U47G C50A C68G | 0.000111 ± 4.4e-05 |  |  |
| A12C G32C U57C C58U | < 1e-05 | < 1e-05 |  |
| A15U A33G G41U | < 1e-05 |  |  |
| G13C G37A G62A | < 1e-05 | < 1e-05 | < 1e-05 |
| G13U U31G A48G A52U | < 1e-05 |  |  |
| A14C C34A U46G | < 1e-05 | < 1e-05 |  |
